Laboratory results taken from US20250051435A1 (INVETX, published 2025).

Experiments:
[1] = target: T1, feline IL-5 (Kingfisher Biotech; RP1152F) (feline, UniProt O77515 20-134); assay: SPR Biacore T200, IgG captured on goat anti-feline IgG CM5 chip, feline IL-5 as analyte
T1 construct: Bought recombinant protein; also called fIL-5; fIL5
T1 sequence (looked up): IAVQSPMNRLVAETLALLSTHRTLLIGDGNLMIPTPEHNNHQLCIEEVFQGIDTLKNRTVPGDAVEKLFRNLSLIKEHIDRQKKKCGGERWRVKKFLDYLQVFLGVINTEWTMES
Text: (§1) MABS, 11:239-264). These post-translational modifications can be particularly problematic when they reside in the CDRs. […] DNA constructs were synthesized (GeneArt) encoding the MtxB clone with substitutions to eliminate the potential sequence liabilities. For the NG site in LCDR3, the Asn (position 106) was substituted with either a Gln or a Ser and for the Met in HCDR3 (position 115), a Len was substituted. The DNA constructs with the light chain variants were fused to the feline kappa constant domain. These DNA constructs were subcloned into the pcDNA3.4 expression vector (ThermoFisher) and expressed with the ExpiCHO system (ThermoFisher). The antibodies were purified with mAbSelect SuRe chromatography (Cytiva) and buffer exchanged into 20 mM sodium acetate, 136 mM sodium chloride, pH 5.5. The variants were tested in an SPR experiment using a Biacore T200 instrument to measure their affinity to feline IL-5 (Kingfisher Biotech; RP1152F). Goat anti-feline IgG was immobilized onto a Series S CM5 sensor chip (Cytiva) and the original MtxB clone and the variants containing the amino acid substitutions were captured on the chip at 5 μg/ml.
DNA constructs (GeneArt) were generated for the two heavy chain variants with the feline IgG1a constant domain along with the three light chain variants with the feline kappa constant domain were all subcloned into pcDNA 3.4 (ThermnoFisher Scientific). Each combination of the heavy and light chain variants was transfected into ExpiCHO cells to generate conditioned medium. The feline IgGs were purified using MabSelect SuRe chromatography and buffer exchanged into 20 mM sodium acetate, 136 mM sodium chloride, pH 5.5. The binding affinities of the different feline IgGs to feline IL-5 was determined using the same SPR method described in the removing potential sequence liabilities in LCDR3 and HCDR3 section and are shown below in Table 7.

[2] = target: T1, feline IL-5 (Kingfisher Biotech; …); assay: SPR Biacore T200, IgG captured on goat anti-feline IgG-Fc CM5 chip, feline IL-5 as analyte
Experimental: (§2) MtxA antibody and MtxB antibody had the highest affinity to feline IL-5 as determined by surface plasmon resonance (SPR) using a Biacore T200 instrument. Goat anti-feline IgG-Fc fragment specific (Jackson ImmunoResearch; 102-005-008) at 30 μg/ml in 10 mM acetate, pH 5.0 was immobilized onto CM5 sensor chip (Cytiva; 29104988) with NHS coupling at 10 μL/min for 420 seconds and then other sites blocked with ethanolamine at 10 μL/min for 420 seconds. The anti-feline IL-5 antibodies were captured at 2 μg/ml onto the anti-feline IgG CM5 chip for 60 sec at 10 μl/min. […] The kinetics of the feline IL-5 binding to the antibodies is shown below in FIG. 2. In addition, an IL-5 receptor blocking assay was completed by capturing biotinylated receptors on a Series S CAP chip and Biotin CAPture reagent (Cytiva). For this assay, a fusion protein was generated containing the extracellular domain of feline IL-5Rα (XP_011278466.1) linked to a 2X-Gly-Gly-Gly-Ser (SEQ ID NO:89) linker-linked to the human IgG1 Fc linked to the AviTag sequence (FIG. 1B, SEQ ID NO:2) and subcloned into the pcDNA3.4 mammalian expression vector. This construct was expressed in CHO-S cells and purified with protein A chromatography followed by a polishing chromatography step with SEC. The purified recombinant protein was biotinylated in vitro using the BirA biotin ligase. Antibodies were titrated in running buffer (1×PBSP+, Cytiva) and pre-incubated with 50 nM IL-5 (Kingfisher) at multiple molar ratios. Binding was assessed by injecting these samples over the captured receptor for 180 s. The Rmax was used to calculate the inhibition percent by dividing the Rmax of the pre-mixed samples by an average of the IL-5-only Rmax samples that were collected throughout the assay. The ability of each antibody to block binding of feline IL5 was measured (Table 2).

[3] = target: T1, feline IL-5 (Kingfisher Biotech; …); assay: Biacore, antibody pre-incubated with 50 nM IL-5 at 1:1, over captured biotinylated IL-5Rα-Fc-AviTag (competitor m3)
Experimental: as §2

[4] = target: T1, feline IL-5 (Kingfisher Biotech; …); assay: high-throughput SPR (Carterra LSA), antibody coupled to HC-30M chip, feline IL-5 as analyte
Experimental: The chip surface was first activated by flowing a freshly prepared 1:1:1 activation mix of 100 mM MES pH 5.5, 100 mM S-NHS, and 400 mM EDC for seven minutes. Antibodies diluted to 10 μg/mL in 10 mM sodium acetate, pH 4.25 buffer, 0.01% Tween were coupled to the chip surface for 10 min using the instrument 96 Multi Flow Channel printhead. The chip surface was quenched by flowing 1 M Ethanolamine for seven minutes, followed by two wash steps of 15 seconds each in 25 mM MES pH 5.5 buffer. Feline IL-5 (Kingfisher Biotech; RP1152F) was used at the following concentrations: 1000, 333.3, 111.1, 37.0, 12.3, 4.1, 1.4, 0.45, and 0.15 nM.

[5] = target: T1, feline IL-5 (Kingfisher Biotech; …); assay: SPR Biacore T200, IgG captured on goat anti-feline IgG CM5 chip, feline IL-5 as analyte; remark: listed apart in the source
Text: as §1, with “Asparagine deamidation for asparagine residues and oxidation at methionine residues can negatively impact the potency and the stability of an antibody (Xu et al., 2019. MABS,” for “MABS,”

B1: Chimeric 154 (clone 154 variable domains with feline IgG1a and feline kappa constant domains) (antibody, V domains shown)
VH: EVQLVESGGDLVKPGGSLKLSCAASGFTFSNYAMSWVRQTPDKRLEWVATIGSGGHYTYHPDSVKGRFSISRDNAKNTLSLQMSSLKSEDTAMYYCTRETDGYDGMDYWGQGTSVTVSS
VL: DIVMTQSPATLSVTPGDRVSLSCRASQSISDYLYWYQQKSHESPRLLIKYASQSISGIPARFSGSGSGSDFTLSINSVEPEDVGVYYCQNGHSFPYTFGGGTKLEIK
notes: also called 154 chimera
[1]
  Kd: 0.0914 nM
  koff: 3.38e-05 s⁻¹
  kon: 369000 M⁻¹ s⁻¹
[2]
  Kd: 0.129 nM
  koff: 3.56e-05 s⁻¹
  kon: 276000 M⁻¹ s⁻¹
[3]
  % blocking 1:1: 98.2%

B2: murine anti-feline IL-5 antibody clone 154 (antibody, V domains shown)
VH: EVQLVESGGDLVKPGGSLKLSCAASGFTFSNYAMSWVRQTPDKRLEWVATIGSGGHYTYHPDSVKGRFSISRDNAKNTLSLQMSSLKSEDTAMYYCTRETDGYDGMDYWGQGTSVTVSS
VL: DIVMTQSPATLSVTPGDRVSLSCRASQSISDYLYWYQQKSHESPRLLIKYASQSISGIPARFSGSGSGSDFTLSINSVEPEDVGVYYCQNGHSFPYTFGGGTKLEIK
notes: also called murine antibody 154
[4]
  Kd: 0.141 nM

B3: MtxA antibody (felinized clone 154) (antibody, IgG1a, V domains shown)
VH: DVQLVESGGDLVKPGGSLRLTCVGSGFTFSNYAMSWVRQAPGEGLQWVATIGSGGHYTYHPDSVKGRFTISRDNAKNTLYLQMNSLQTEDTASYYCTRETDGYDGMDYWGQGTLVTVSS
VL: EIQMTQSPSSLSASVGDRVTITCRASQSISDYLYWYQQKPGKAPKLLIYYASQSISGVPSRFSGSGSGTDFTLTISSLQPEDFATYYCQNGHSFPYTFGPGTKLEIK
notes: Feline IgG1a (GenBank BAA32229.1) / feline kappa (GenBank ATI97438.1); also called Matrix clone A
[1]
  Kd: 0.273 nM
  koff: 6.65e-05 s⁻¹
  kon: 242000 M⁻¹ s⁻¹
[2]
  Kd: 0.178 nM
  koff: 1.49e-05 s⁻¹
  kon: 87100 M⁻¹ s⁻¹
[3]
  % blocking 1:1: 92.5%

B4: MtxB antibody (felinized clone 154) (antibody, IgG1a, V domains shown)
VH: DVQLVESGGDLVKPGGSLRLTCVGSGFTFSNYAMSWVRQAPGEGLQWVATIGSGGHYTYHPDSVKGRFTISRDNAKNTLYLQMNSLQTEDTASYYCTRETDGYDGMDYWGQGTLVTVSS
VL: DIVMTQTPLSLSVTPGEPASISCRASQSISDYLYWYLQKPGQSPRRLIYYASQSISGVPDRFSGSGSGTDFTLRISRVEADDVGVYYCQNGHSFPYTFGPGTKLEIK
notes: Feline IgG1a (GenBank BAA32229.1) / feline kappa (GenBank ATI97438.1); also called MatrixB; Matrix B
[2]
  Kd: 5.02 nM
  koff: 0.000548 s⁻¹
  kon: 141000 M⁻¹ s⁻¹
[5]
  Kd: 5.9 nM
  koff: 0.00053 s⁻¹
  kon: 90000 M⁻¹ s⁻¹
[3]
  % blocking 1:1: 74.2%
